Measured values from paper PMC8561633 (The EMBO Journal, 2021).
Substitutions are numbered along the chain they refer to. Ends that are not written are not given here.

B1: Asyn Med peptide (GKNEEGAPQEGI) of alpha‐synuclein, carboxyfluorescein-labeled (peptide)
peptide: GKNEEGAPQEGI
modifications: also: 5(6)-carboxyfluorescein label, site not given here
B2: SERF2 KR mutant (natural protein)
chain: MTRGNQRELARQKNMRRQSDSVRGKRRDDGLSAAARKQRDSEIMQQKQKKANEKKEEPK
B3: Asyn worst peptide (MDVFMKGLSKAK) of alpha‐synuclein, carboxyfluorescein-labeled (peptide)
peptide: MDVFMKGLSKAK
modifications: also: 5(6)-carboxyfluorescein label, site not given here
B4: Asyn top peptide (YEMPSEEGYQDY) of alpha‐synuclein, carboxyfluorescein-labeled (peptide)
peptide: YEMPSEEGYQDY
modifications: also: 5(6)-carboxyfluorescein label, site not given here
B5: wild‐type SERF2 (natural protein)
chain: B2 chain with R16K, R17K, R23K

Experiments:
Test in all cases: MST
[1] = target: T1, wild‐type SERF2 (human, UniProt P84101-1 1-59)
T1 sequence: B2 chain with R16K, R17K, R23K

[2] = target: amyloid beta peptide (strongest wild‐type SERF2 binding peptide from amyloid beta), carboxyfluorescein-labeled (human)
[3] = target: B4
[4] = target: B1
[5] = target: B3

B1: binds [1].

For B2, the Kd [2] was 6.6 µM, the Kd [3] was 2.6 µM and the binding result [4] was “binds”. B2: binds [5].

B3: binds [1].

With B4 the Kd [1] was 3 µM.

B5 showed a Kd [2] of 9.6 µM.
